# Assay results reported in paper PMC10397247.
# T1: 4H118-bN
# T1 chain: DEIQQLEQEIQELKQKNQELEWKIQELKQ
# T2: 4H170-bN
# T2 chain: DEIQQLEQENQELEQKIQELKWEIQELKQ
# T3: 4H1831-bN
# T3 chain: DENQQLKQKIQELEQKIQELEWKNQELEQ
# T4: 4H2586-bN
# T4 chain: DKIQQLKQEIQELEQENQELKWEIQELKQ
# T5: 4H2627-bN
# T5 chain: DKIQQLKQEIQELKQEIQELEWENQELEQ
# T6: 4H2673-bN
# T6 chain: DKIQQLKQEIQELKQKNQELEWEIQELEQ
# T7: 4H2702-bN
# T7 chain: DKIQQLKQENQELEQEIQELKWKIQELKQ
# T8: 4H3010-bN
# T8 chain: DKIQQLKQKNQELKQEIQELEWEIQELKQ
# T9: 4H3112-bN
# T9 chain: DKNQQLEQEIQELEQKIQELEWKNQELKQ
# T10: 4H3427-bN
# T10 chain: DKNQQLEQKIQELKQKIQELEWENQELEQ
# T11: 4H346-bN
# T11 chain: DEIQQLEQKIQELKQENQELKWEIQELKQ
# T12: 4H3926-bN
# T12 chain: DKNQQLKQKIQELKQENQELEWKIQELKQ
# T13: 4H4073-bN
# T13 chain: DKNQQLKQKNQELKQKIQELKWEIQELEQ
# T14: 4H457-bN
# T14 chain: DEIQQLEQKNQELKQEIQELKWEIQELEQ
# T15: 4H575-bN
# T15 chain: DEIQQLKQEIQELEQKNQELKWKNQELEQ
# T16: 4H683-bN
# T16 chain: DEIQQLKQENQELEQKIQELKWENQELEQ
# T17: 4H754-bN
# T17 chain: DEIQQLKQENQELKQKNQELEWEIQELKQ
# T18: 4H780-bN
# T18 chain: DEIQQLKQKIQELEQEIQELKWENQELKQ
# T19: 4H797-bN
# T19 chain: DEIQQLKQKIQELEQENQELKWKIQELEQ
# T20: 4H855-bN
# T20 chain: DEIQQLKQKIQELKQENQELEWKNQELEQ
# T21: 4H918-bN
# T21 chain: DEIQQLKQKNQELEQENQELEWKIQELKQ
# T22: 4H953-bN
# T22 chain: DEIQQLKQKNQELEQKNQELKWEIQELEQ
# T23: 4H968-bN
# T23 chain: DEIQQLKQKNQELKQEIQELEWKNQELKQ
# T24: O15-bS
# T24 chain: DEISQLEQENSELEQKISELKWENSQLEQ
# Key:
# Experiment in all cases: two-hybrid library CCNG1;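 also: natural log of median RNA to DNA barcode read ratio; higher means stronger binding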
# 4H118-bN = molecular target: T1, 4H118-bN
# 4H170-bN = molecular target: T2, 4H170-bN
# 4H1831-bN = molecular target: T3, 4H1831-bN
# 4H2586-bN = molecular target: T4, 4H2586-bN
# 4H2627-bN = molecular target: T5, 4H2627-bN
# 4H2673-bN = molecular target: T6, 4H2673-bN
# 4H2702-bN = molecular target: T7, 4H2702-bN
# 4H3010-bN = molecular target: T8, 4H3010-bN
# 4H3112-bN = molecular target: T9, 4H3112-bN
# 4H3427-bN = molecular target: T10, 4H3427-bN
# 4H346-bN = molecular target: T11, 4H346-bN
# 4H3926-bN = molecular target: T12, 4H3926-bN
# 4H4073-bN = molecular target: T13, 4H4073-bN
# 4H457-bN = molecular target: T14, 4H457-bN
# 4H575-bN = molecular target: T15, 4H575-bN
# 4H683-bN = molecular target: T16, 4H683-bN
# 4H754-bN = molecular target: T17, 4H754-bN
# 4H780-bN = molecular target: T18, 4H780-bN
# 4H797-bN = molecular target: T19, 4H797-bN
# 4H855-bN = molecular target: T20, 4H855-bN
# 4H918-bN = molecular target: T21, 4H918-bN
# 4H953-bN = molecular target: T22, 4H953-bN
# 4H968-bN = molecular target: T23, 4H968-bN
# O15-bS = molecular target: T24, O15-bS
binder,measurement,setting,value
DEIQQLEQEIQELKQKNQELEWKIQELKQ [4H118-bN],interaction score,4H118-bN,0.139
same,interaction score,4H170-bN,-1.27
same,interaction score,4H1831-bN,-0.392
same,interaction score,4H2586-bN,0.735
same,interaction score,4H2627-bN,0.463
same,interaction score,4H2673-bN,1.25
same,interaction score,4H2702-bN,0.0476
same,interaction score,4H3010-bN,2.35
same,interaction score,4H3112-bN,-0.413
same,interaction score,4H3427-bN,-0.395
same,interaction score,4H346-bN,-0.129
same,interaction score,4H3926-bN,1.02
same,interaction score,4H4073-bN,-1.59
same,interaction score,4H457-bN,-1.63
same,interaction score,4H575-bN,-0.336
same,interaction score,4H683-bN,-0.936
same,interaction score,4H754-bN,-0.655
same,interaction score,4H780-bN,-0.129
same,interaction score,4H797-bN,-0.885
same,interaction score,4H855-bN,0.221
same,interaction score,4H918-bN,-0.314
same,interaction score,4H953-bN,-0.648
same,interaction score,4H968-bN,0.0583
same,interaction score,O15-bS,-1.04
